{"source": "patent US20030040044A1", "key": {"[1]": {"biological_target": "human αVβ3 integrin, purified (human) (UniProt P06756)", "assay": "saturation binding on αvβ3 coated plate (ELISA), non-linear regression, n = 6"}, "[2]": {"biological_target": "human αVβ3 integrin, purified (human) (UniProt P06756)", "assay": "ELISA on αVβ3-coated plates, fifty percent maximal binding"}, "[3]": {"biological_target": "αvβ3 and αvβ5 integrins together on human cells (M21, A375S2, HUVEC) (human) (UniProt P06756)"}, "[4]": {"biological_target": "αVβ3 integrin on human cells (human) (UniProt P06756)"}, "[5]": {"biological_target": "αVβ3 integrin on human cells (human) (UniProt P06756)", "remark": "listed apart in the source"}, "[6]": {"biological_target": "αVβ3 integrin on human cells (human) (UniProt P06756)", "assay": "binding of radiolabelled LM609 to A375S2 cells, Bmax, n = 2"}, "[7]": {"biological_target": "αVβ5 integrin on human cells (human) (UniProt P06756)"}, "[8]": {"biological_target": "αVβ5 integrin on human cells (human) (UniProt P06756)", "assay": "binding of radiolabelled P1F6 to A375S2 cells, Bmax, n = 4"}, "[9]": {"biological_target": "αVβ5 integrin on human cells (human) (UniProt P06756)", "remark": "listed apart in the source"}, "[10]": {"biological_target": "αVβ5 integrin on human cells (human) (UniProt P06756)", "assay": "binding of radiolabelled P1F6 to HT-29 cells, Bmax, n = 1"}, "[11]": {"biological_target": "αVβ5 integrin on human cells (human) (UniProt P06756)", "assay": "binding of radiolabelled P1F6 to M21 cells, Bmax, n = 2"}}}
{"substance": "ReoPro (Fab)", "values": [{"measurement": "Kd", "setting": "[1]", "result": 0.25, "unit": "nM"}]}
{"substance": "c7E3 IgG (antibody)", "values": [{"measurement": "EC50", "setting": "[2]", "result": 0.07, "unit": "µg/mL"}]}
{"substance": "Human IgG (polyclonal serum or antibody)", "values": [{"measurement": "Adhesion (%) of HUVEC to vitronectin (% of adhesion without antibody)", "setting": "[3]", "result": 96.3}]}
{"substance": "LM609 (antibody)", "values": [{"measurement": "Adhesion (%) of A375S.2 cells to fibrin (% of adhesion without antibody)", "setting": "[4]", "result": 50}, {"measurement": "Adhesion (%) of A375S.2 cells to fibrinogen (% of adhesion without antibody)", "setting": "[4]", "result": 14}, {"measurement": "Adhesion (%) of A375S.2 cells to gelatin (% of adhesion without antibody)", "setting": "[4]", "result": 25.2}, {"measurement": "Adhesion (%) of A375S.2 cells to vitronectin (% of adhesion without antibody)", "setting": "[4]", "result": 42.1}, {"measurement": "Adhesion (%) of HUVEC to fibrin (% of adhesion without antibody)", "setting": "[5]", "result": 48.1}, {"measurement": "Adhesion (%) of HUVEC to fibrinogen (% of adhesion without antibody)", "setting": "[5]", "result": 14.3}, {"measurement": "Adhesion (%) of HUVEC to gelatin (% of adhesion without antibody)", "setting": "[5]", "result": 36.5}, {"measurement": "Adhesion (%) of HUVEC to vitronectin (% of adhesion without antibody)", "setting": "[5]", "result": 26.3}, {"measurement": "Receptors per cell (receptors per cell)", "setting": "[6]", "result": 300000}]}
{"substance": "P1F6 (antibody)", "values": [{"measurement": "Adhesion (%) of A375S.2 cells to vitronectin (% of adhesion without antibody)", "setting": "[7]", "result": 28.5}, {"measurement": "Receptors per cell (receptors per cell)", "setting": "[8]", "result": 70000}, {"measurement": "Adhesion (%) of HUVEC to vitronectin (% of adhesion without antibody)", "setting": "[9]", "result": 39.8}, {"measurement": "Receptors per cell (receptors per cell)", "setting": "[10]", "result": 73000}, {"measurement": "Receptors per cell (receptors per cell)", "setting": "[11]", "result": 44000}]}
